Results published in PMC9352346, “Arl15 upregulates the TGFβ family signaling by promoting the assembly of the Smad-complex” (eLife, 2022).

T1: His-Smad4 (UniProt Q13485 1-552)
T1 construct: Smad4; also called purified His-tagged Smad4; source: E. coli BL21, purified (nickel-nitrilotriacetic acid agarose)
T1 sequence (looked up): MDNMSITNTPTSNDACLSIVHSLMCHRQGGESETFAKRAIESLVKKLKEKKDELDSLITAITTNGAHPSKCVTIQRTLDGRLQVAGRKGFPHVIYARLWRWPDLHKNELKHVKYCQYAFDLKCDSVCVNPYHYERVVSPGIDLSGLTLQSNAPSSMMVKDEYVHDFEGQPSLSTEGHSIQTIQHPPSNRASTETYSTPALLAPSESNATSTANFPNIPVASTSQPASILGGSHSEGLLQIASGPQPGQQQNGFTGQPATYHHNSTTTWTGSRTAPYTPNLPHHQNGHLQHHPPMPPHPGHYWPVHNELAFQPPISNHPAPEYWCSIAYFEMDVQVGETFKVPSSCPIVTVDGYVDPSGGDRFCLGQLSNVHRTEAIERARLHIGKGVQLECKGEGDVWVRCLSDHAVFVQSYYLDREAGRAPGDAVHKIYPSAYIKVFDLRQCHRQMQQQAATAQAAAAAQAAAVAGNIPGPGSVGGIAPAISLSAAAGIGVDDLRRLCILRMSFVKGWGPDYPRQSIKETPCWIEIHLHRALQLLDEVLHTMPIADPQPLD


Molecular target: T1, His-Smad4
Experiment: pull-down; bead-immobilized GST-Arl15-AL incubated with purified His-tagged Smads (His-Smad4, His-Smad2-SE, alone or together); immunoblotted against His-tag
Details: both partners purified

binding result	Binder
binds	GST-Arl15-AL (natural protein, human, UniProt Q9NXU5 1-204, looked up, Arl15, human, A86L; also called bead-immobilized Arl15-AL; GST-Arl15-A86L; source: E. coli BL21, purified (Glutathione Sepharose 4B)) MSDLRITEAFLYMDYLCFRALCCKGPPPARPEYDLVCIGLTGSGKTSLLSKLCSESPDNVVSTTGFSIKAVPFQNAILNVKELGGLDNIRKYWSRYYQGSQGVIFVLDSASSEDDLEAARNELHSALQHPQLCTLPFLILANHQDKPAARSVQEIKKYFELEPLARGKRWILQPCSLDDMDALKDSFSQLINLLEEKDHEAVRM
binds	His-Smad2-SE (natural protein, UniProt Q15796 1-467, looked up, Smad2 with phosphomimetic mutations S465E/S467E; also called His-Smad2 with S465E/S467E mutations; source: E. coli BL21, purified (nickel-nitrilotriacetic acid agarose)) MSSILPFTPPVVKRLLGWKKSAGGSGGAGGGEQNGQEEKWCEKAVKSLVKKLKKTGRLDELEKAITTQNCNTKCVTIPSTCSEIWGLSTPNTIDQWDTTGLYSFSEQTRSLDGRLQVSHRKGLPHVIYCRLWRWPDLHSHHELKAIENCEYAFNLKKDEVCVNPYHYQRVETPVLPPVLVPRHTEILTELPPLDDYTHSIPENTNFPAGIEPQSNYIPETPPPGYISEDGETSDQQLNQSMDTGSPAELSPTTLSPVNHSLDLQPVTYSEPAFWCSIAYYELNQRVGETFHASQPSLTVDGFTDPSNSERFCLGLLSNVNRNATVEMTRRHIGRGVRLYYIGGEVFAECLSDSAIFVQSPNCNQRYGWHPATVCKIPPGCNLKIFNNQEFAALLAQSVNQGFEAVYQLTRMCTIRMSFVKGWGAEYRRQTVTSTPCWIELHLNGPLQWLDKVLTQMGSPSVRCSEME
